PMC2120156 (The Journal of Cell Biology, 1994)

Biological target: filamentous actin (F-actin) from rabbit skeletal muscle (rabbit, UniProt P68135 1-377)
Experiment: co-sedimentation

Binder	stoichiometry N
MBPVinc8 (maltose binding protein fused to vinculin tail residues 809-1063) (domain or fragment) SDPGLQKSFLDSGYRILGAVAKVREAFQPQEPDFPPPPPDLEHLHLTDELAPPKPPLPEGEVPPPRPPPPEEKDEEFPEQKAGEAINQPMMMAARQLHDEARKWSSKGNDIIAAAKRMALLMAEMSRLVRGGSGNKRALIQCAKDIAKASDEVTRLAKEVAKQCTDKRIRTNLLQVCERIPTISTQLKILSTVKATMLGRTNISDEESEQATEMLVHNAQNLMQSVKETVREAEAASIKIRTDAGFTLRWVRKTP	1.18 mol MBPVinc8 per mol actin
gizzard vinculin (intact, 116 kD) (natural protein) MPVFHTRTIESILEPVAQQISHLVIMHEEGEVDGKAIPDLTAPVSAVQAAVSNLVRVGKETVQTTEDQILKRDMPPAFIKVENACTKLVRAAQMLQADPYSVPARDYLIDGSRGILSGTSDLLLTFDEAEVRKIIRVCKGILEYLTVAEVVETMEDLVTYTKNLGPGMTKMAKMIDERQQELTHQEHRVMLVNSMNTVKELLPVLISAMKIFVTTKNTKSQGIEEALKNRNFTVEKMSAEINEIIRVLQLTSWDEDAWASKDTEAMKRALALIDSKMNQAKGWLRDPNAPPGDAGEQAIRQILDEAGKAGELCAGKERREILGTCKTLGQMTDQLADLRARGQGATPMAMQKAQQVSQGLDLLTAKVENAARKLEAMTNSKQAIAKKIDAAQNWLADPNGGSEGEEHIRGIMSEARKVAELCEEPKERDDILRSLGEISALTAKLSDLRRHGKGDSPEARALAKQIATSLQNLQSKTNRAVANTRPVKAAVHLEGKIEQAQRWIDNPTVDDRGVGQAAIRGLVAEGRRLANVMMGPYRQDLLAKCDRVDQLAAQLADLAARGEGESPQARAIAAQLQDSLKDLKARMQEAMTQEVSDVFSDTTTPIKLLAVAATAPSDTPNREEVFEERAANFENHAARLGATAEKAAAVGTANKTTVEGIQATVKSARELTPQVVSAARILLRNPGNQAAYEHFETMKNQWIDNVEKMTGLVDEAIDTKSLLDASEEAIKKDLDKCKVAMANMQPQMLVAGATSIARRANRILLVAKREVENSEDPKFREAVKAASDELSKTISPMVMDAKAVAGNISDPGLQKSFLDSGYRILGAVAKVREAFQPQEPDFPPPPPDLEHLHLTDELAPPKPPLPEGEVPPPRPPPPEEKDEEFPEQKAGEAINQPMMMAARQLHDEARKWSSKGNDIIAAAKRMALLMAEMSRLVRGGSGNKRALIQCAKDIAKASDEVTRLAKEVAKQCTDKRIRTNLLQVCERIPTISTQLKILSTVKATMLGRTNISDEESEQATEMLVHNAQNLMQSVKETVREAEAASIKIRTDAGFTLRWVRKTPWYQ	0.5 mol vinculin per mol actin
